Assay results: the supplement of paper PMC11316812
± gives the standard deviation of the averaged measurements.

How the values were obtained:
[1] = tested on: hTERT-HMEC; assay: percentage of EdU-negative (G0-arrested) nuclei per well, 72 h; higher = more G0 arrest; details: reference: sequence is the full UniProt precursor, the tested protein was the secreted form or ectodomain
[2] = tested on: MCF7; assay: as above; details: reference: sequence is the full UniProt precursor, the tested protein was the secreted form or ectodomain
[3] = protein concentration 0.0225 µM
[4] = protein concentration 0.0182857 µM
[5] = protein concentration 0.182857 µM
[6] = protein concentration 0.025165 µM
[7] = protein concentration 0.25165 µM
[8] = protein concentration 0.03125 µM
[9] = protein concentration 0.3125 µM
[10] = protein concentration 0.02525 µM
[11] = protein concentration 0.2525 µM
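Note: secreted proteins added to cultured cells, EdU pulse at the end, nuclei found by Hoechst imaging, EdU status from nuclear versus surrounding ring intensity ratio, PBS as neutral control.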

Sequence: MNVLLGSVVIFATFVTLCNASCYFIPNEGVPGDSTRKCMDLKGNKHPINSEWQTDNCETCTCYETEISCCTLVSTPVGYDKDNCQRIFKKEDCKYIVVEKKDPKKTCSVSEWII
- percentage of EdU-negative [1, 3]: 5.28 ± 0.77%
- percentage of EdU-negative ([1]; protein concentration 0.225 µM): 5.95 ± 1.1%
- percentage of EdU-negative [2, 3]: 25.8 ± 1.8%
- percentage of EdU-negative ([2]; protein concentration 0.225 µM): 24.5 ± 0.81%

Sequence: MNWHLPLFLLASVTLPSICSHFNPLSLEELGSNTGIQVFNQIVKSRPHDNIVISPHGIASVLGMLQLGADGRTKKQLAMVMRYGVNGVGKILKKINKAIVSKKNKDIVTVANAVFVKNASEIEVPFVTRNKDVFQCEVRNVNFEDPASACDSINAWVKNETRDMIDNLLSPDLIDGVLTRLVLVNAVYFKGLWKSRFQPENTKKRTFVAADGKSYQVPMLAQLSVFRCGSTSAPNDLWYNFIELPYHGESISMLIALPTESSTPLSAIIPHISTKTIDSWMSIMVPKRVQVILPKFTAVAQTDLKEPLKVLGITDMFDSSKANFAKITTGSENLHVSHILQKAKIEVSEDGTKASAATTAILIARSSPPWFIVDRPFLFFIRHNPTGAVLFMGQINKP
- percentage of EdU-negative [1, 4]: 4.86 ± 0.67%
- percentage of EdU-negative [1, 5]: 9.81 ± 1%
- percentage of EdU-negative [2, 4]: 26.98 ± 0.12%
- percentage of EdU-negative [2, 5]: 27.93 ± 0.17%

Sequence: MPACRLGPLAAALLLSLLLFGFTLVSGTGAEKTGVCPELQADQNCTQECVSDSECADNLKCCSAGCATFCSLPNDKEGSCPQVNINFPQLGLCRDQCQVDSQCPGQMKCCRNGCGKVSCVTPNF
- percentage of EdU-negative [1, 6]: 4.52 ± 0.38%
- percentage of EdU-negative [1, 7]: 4.9 ± 0.49%
- percentage of EdU-negative [2, 6]: 25.2 ± 0.76%
- percentage of EdU-negative [2, 7]: 25.3 ± 0.99%

Sequence: MPAFNRLFPLASLVLIYWVSVCFPVCVEVPSETEAVQGNPMKLRCISCMKREEVEATTVVEWFYRPEGGKDFLIYEYRNGHQEVESPFQGRLQWNGSKDLQDVSITVLNVTLNDSGLYTCNVSREFEFEAHRPFVKTTRLIPLRVTEEAGEDFTSVVSEIMMYILLVFLTLWLLIEMIYCYRKVSKAEEAAQENASDYLAIPSENKENSAVPVEE [Q9NY72]
- percentage of EdU-negative [1, 8]: 4.7 ± 0.6%
- percentage of EdU-negative [1, 9]: 4.76 ± 0.95%
- percentage of EdU-negative [2, 8]: 25.4 ± 0.68%
- percentage of EdU-negative [2, 9]: 25.4 ± 1.8%

Sequence: MPAGRAARTCALLALCLLGAGAQDFGPTRFICTSVPVDADMCAASVAAGGAEELRSSVLQLRETVLQQKETILSQKETIRELTAKLGRCESQSTLDPGAGEARAGGGRKQPGSGKNTMGDLSRTPAAETLSQLGQTLQSLKTRLENLEQYSRLNSSSQTNSLKDLLQSKIDELERQVLSRVNTLEEGKGGPRNDTEERVKIETALTSLHQRISELEKGQKDNRPGDKFQLTFPLRTNYMYAKVKKSLPEMYAFTVCMWLKSSATPGVGTPFSYAVPGQANELVLIEWGNNPMEILINDKVAKLPFVINDGKWHHICVTWTTRDGVWEAYQDGTQGGSGENLAPYHPIKPQGVLVLGQEQDTLGGGFDATQAFVGELAHFNIWDRKLTPGEVYNLATCSTKALSGNVIAWAESHIEIYGGATKWTFEACRQIN
- percentage of EdU-negative [1, 10]: 5.12 ± 0.18%
- percentage of EdU-negative [1, 11]: 4.43 ± 0.47%
- percentage of EdU-negative [2, 10]: 26.9 ± 2.1%
- percentage of EdU-negative [2, 11]: 24.2 ± 4.3%

Sequence: MPAGRRGPAAQSARRPPPLLPLLLLLCVLGAPRAGSGAHTAVISPQDPTLLIGSSLLATCSVHGDPPGATAEGLYWTLNGRRLPPELSRVLNASTLALALANLNGSRQRSGDNLVCHARDGSILAGSCLYVGLPPEKPVNISCWSKNMKDLTCRWTPGAHGETFLHTNYSLKYKLRWYGQDNTCEEYHTVGPHSCHIPKDLALFTPYEIWVEATNRLGSARSDVLTLDILDVVTTDPPPDVHVSRVGGLEDQLSVRWVSPPALKDFLFQAKYQIRYRVEDSVDWKVVDDVSNQTSCRLAGLKPGTVYFVQVRCNPFGIYGSKKAGIWSEWSHPTAASTPRSERPGPGGGACEPRGGEPSSGPVRRELKQFLGWLKKHAYCSNLSFRLYDQWRAWMQKSHKTRNQDEGILPSGRRGTARGPAR
- percentage of EdU-negative ([1]; protein concentration 0.006 µM): 4.58 ± 0.39%
- percentage of EdU-negative ([1]; protein concentration 0.06 µM): 5.19 ± 0.85%
- percentage of EdU-negative ([2]; protein concentration 0.006 µM): 25.3 ± 0.23%
- percentage of EdU-negative ([2]; protein concentration 0.06 µM): 28.9 ± 1.2%

Sequence: MPAIAVLAAAAAAWCFLQVESRHLDALAGGAGPNHGNFLDNDQWLSTVSQYDRDKYWNRFRDDDYFRNWNPNKPFDQALDPSKDPCLKVKCSPHKVCVTQDYQTALCVSRKHLLPRQKKGNVAQKHWVGPSNLVKCKPCPVAQSAMVCGSDGHSYTSKCKLEFHACSTGKSLATLCDGPCPCLPEPEPPKHKAERSACTDKELRNLASRLKDWFGALHEDANRVIKPTSSNTAQGRFDTSILPICKDSLGWMFNKLDMNYDLLLDPSEINAIYLDKYEPCIKPLFNSCDSFKDGKLSNNEWCYCFQKPGGLPCQNEMNRIQKLSKGKSLLGAFIPRCNEEGYYKATQCHGSTGQCWCVDKYGNELAGSRKQGAVSCEEEQETSGDFGSGGSVVLLDDLEYERELGPKDKEGKLRVHTRAVTEDDEDEDDDKEDEVGYIW
- percentage of EdU-negative ([1]; protein concentration 0.015 µM): 5.37 ± 0.53%
- percentage of EdU-negative ([1]; protein concentration 0.15 µM): 10.4 ± 1.6%
- percentage of EdU-negative ([2]; protein concentration 0.015 µM): 24.9 ± 1%
- percentage of EdU-negative ([2]; protein concentration 0.15 µM): 26.5 ± 1.8%
